# Reference: paper PMC3092982, “Zinc Binding to the Tyr402 and His402 Allotypes of Complement Factor H: Possible Implications for Age-Related Macular Degeneration” (Journal of Molecular Biology, 2011)
# Biological target: the molecule itself
# Test: AUC; sedimentation velocity, SCR-6/8 at 0.3 mg/ml (14.6 μM), Hepes buffer, 20 °C, 50,000 rpm, c(s) analysis; monomer and dimer peaks seen throughout the ZnSO4 titration 0.2-600 μM
row,Protein,stoichiometry N
1,"recombinant FH fragment SCR-6/8 Tyr402 (domain or fragment, human, complement factor H, human, SCR domains 6 to 8, Tyr402 allotype; It says that SCR-6/8, unlike SCR-1/5 and SCR-16/20, has no His6-tag; also called SCR-6/8 Tyr402 allotype; source: E. coli BL21 (DE3), pET21ab) LKPCDYPDIKHGGLYHENMRRPYFPVAVGKYYSYYCDEHFETPSGSYWDHIHCTQDGWSPAVPCLRKCYFPYLENGYNQNYGRKFVQGKSIDVACHPGYALPKAQTTVTCMENGWSPTPRCIRVKTCSKSSIDIENGFISESQYTYALKEKAKYQCKLGYVTADGETSGSITCGKDGWSAQPTCI",2
2,"recombinant FH fragment SCR-6/8 His402 (domain or fragment, human, complement factor H, human, SCR domains 6 to 8, His402 allotype; It says that SCR-6/8, unlike SCR-1/5 and SCR-16/20, has no His6-tag; PDB 2UWN is a cited crystal structure of SCR-6/8 His402 whose limits may differ from this construct; also called SCR-6/8 His402 allotype; source: E. coli BL21 (DE3)pLysS, pET14b) LKPCDYPDIKHGGLYHENMRRPYFPVAVGKYYSYYCDEHFETPSGSYWDHIHCTQDGWSPAVPCLRKCYFPYLENGYNQNHGRKFVQGKSIDVACHPGYALPKAQTTVTCMENGWSPTPRCIRVKTCSKSSIDIENGFISESQYTYALKEKAKYQCKLGYVTADGETSGSITCGKDGWSAQPTCI",2
